Experimental data from US20120322725A1.
Like-named read-outs stand apart in the source and are kept apart here. PLA = 3-phenyllactic acid (2-hydroxy-3-phenylpropanoic acid)

B1: [PLA6, E9, K12E16 (Lactam)] glucagon (6-CEX) analog (peptide)
peptide: TSEYSKYLDERRAQDFVQWLMNTGPSSGAPPPS
modifications: PLA at position 6, N-terminal to the letters given; lactam between K12 and E16 (glucagon numbering)

Legend:
[1] = target: glucagon receptor, P47871; assay: receptor binding, method not described
[2] = target: glucagon receptor, P47871; assay: cell-based or functional assay
GLP-1 receptor [3] = target: GLP-1 receptor (UniProt P43220); assay: cell-based or functional assay
glucagon receptor [4] = target: glucagon receptor (UniProt P47871); assay: cell-based or functional assay
glucagon receptor [5] = target: glucagon receptor (UniProt P47871); assay: cell-based or functional assay; remark: listed apart in the source
GLP-1 receptor [6] = target: GLP-1 receptor (UniProt P43220); assay: cell-based or functional assay; remark: listed apart in the source

GLP-1 receptor, sequence (P43220 24-463 limits assumed): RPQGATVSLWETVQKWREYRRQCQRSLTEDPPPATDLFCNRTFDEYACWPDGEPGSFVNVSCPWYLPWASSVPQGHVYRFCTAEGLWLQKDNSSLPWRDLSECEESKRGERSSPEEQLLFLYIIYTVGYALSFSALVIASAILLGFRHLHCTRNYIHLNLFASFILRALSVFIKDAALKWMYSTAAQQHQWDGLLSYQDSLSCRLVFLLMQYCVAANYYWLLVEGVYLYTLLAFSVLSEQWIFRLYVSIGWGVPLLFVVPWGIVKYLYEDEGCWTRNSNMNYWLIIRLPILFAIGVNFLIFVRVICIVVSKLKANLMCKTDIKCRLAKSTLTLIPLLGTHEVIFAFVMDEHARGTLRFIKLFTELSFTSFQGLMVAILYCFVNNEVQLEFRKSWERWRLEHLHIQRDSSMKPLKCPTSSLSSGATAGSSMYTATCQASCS
glucagon receptor, sequence (P47871 26-477 limits assumed): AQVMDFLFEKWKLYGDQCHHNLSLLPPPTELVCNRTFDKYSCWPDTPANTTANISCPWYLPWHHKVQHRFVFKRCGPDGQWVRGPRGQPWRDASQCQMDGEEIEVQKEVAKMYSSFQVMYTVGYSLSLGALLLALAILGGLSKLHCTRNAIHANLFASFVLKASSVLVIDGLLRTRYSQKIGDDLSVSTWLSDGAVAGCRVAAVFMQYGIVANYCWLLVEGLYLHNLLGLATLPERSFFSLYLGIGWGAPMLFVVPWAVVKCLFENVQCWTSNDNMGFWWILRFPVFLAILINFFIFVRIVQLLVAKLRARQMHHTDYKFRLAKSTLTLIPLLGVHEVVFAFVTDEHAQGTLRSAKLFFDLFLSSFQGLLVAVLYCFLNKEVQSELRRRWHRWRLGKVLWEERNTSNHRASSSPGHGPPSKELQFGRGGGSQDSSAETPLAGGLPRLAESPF
glucagon receptor, P47871, sequence (P47871 26-477 limits assumed): as above

| Binder | IC50 [1] [nM] | IC50(nM) (cAMP, inhibit Glucagon) 0.1 nM or 0.2 nM [2] | GLP-1 (EC50) (GLP-1 receptor [3]) [nM] | Glu IC50 (glucagon receptor [4]) [nM] | Glucagon IC50 (glucagon receptor [5]) [nM] | GLP-1 (EC50) (GLP-1 receptor [6]) [nM] |
| --- | --- | --- | --- | --- | --- | --- |
| {PLA}-TSEYSKYLDSRRAQDFVQWLMNTGPSSGAPPPS-NH2 [[PLA6, E9]Glucagon (aa6-29 + CEX)-NH2] | 40.3 | 24.8 |  |  |  |  |
| B1 |  |  | 6 | 72 | 72 |  |
| FTSEYSKYLDERRAQDFVQWLMNTGPSSGAPPPS [Glucagon (6-CEX) analog E9, K12, E16] |  |  |  | 762 | 762 |  |
| FTSDYSKYLDERRAQDFVQWLMNTGPSSGAPPPS (lactam between K12 and E16 (glucagon numbering)) [Glucagon (6-CEX) analog D9, K12E16 (Lactam)] |  |  | 119 | 828 | 828 | 18 |
| FTSEYSKYLDERRAKDFVQWLMNTGPSSGAPPPS (lactam between E16 and K20 (glucagon numbering)) [Glucagon (6-CEX) analog E9, E16K20 (lactam)] |  |  | 36 | 42 | 42 |  |
| FTSEYSKYLDERRAQDFVQWLMNTGPSSGAPPPS (lactam between K12 and E16 (glucagon numbering)) [Glucagon (6-CEX) analog E9, K12E16 (lactam)] |  |  | 63 | 2010 | 2010 |  |
